Results taken from publication PMC6708749.

Legend:
Assay in all cases: SEC
[1] = target: ELIC-α1GABAAR chimera, W246L mutant (Erwinia chrysanthemi | human)
[2] = target: ELIC-α1GABAAR chimera, Q242W mutant (Erwinia chrysanthemi | human)
[3] = target: ELIC-α1GABAAR chimera, Q242L mutant (Erwinia chrysanthemi | human)
[4] = target: ELIC-α1GABAAR chimera, WT (Erwinia chrysanthemi | human)

Question: Which stoichiometry N [1] does the source give for ELIC-α1GABAAR chimera, W246L mutant here?
Answer: 5

Question: For ELIC-α1GABAAR chimera, Q242W mutant, which stoichiometry N [2] is on record?
Answer: 5

Question: ELIC-α1GABAAR chimera, Q242L mutant was tested. Which stoichiometry N [3] did it give?
Answer: 5

Question: ELIC-α1GABAAR chimera, WT was tested. Which stoichiometry N [4] did it give?
Answer: 5

Question: ELIC-β3GABAAR chimera was tested. Which stoichiometry N [4] did it give?
Answer: 5
